# Source: US20170168078A1 (EISAI R AND D MANAGEMENT, published 2017)
# Tests used:
# [1] = molecular target: T1, human folate receptor beta (FRβ) expressed on CHO cells (human, UniProt P14207 17-230); test: western blot of nonreduced whole cell lysates of CHO cells, SDS-PAGE
# T1 construct: whole, on cells; also called CHO-FRβ
# [2] = molecular target: T2, purified recombinant human FRβ; test: western blot of 0.5 µg purified protein per lane, reduced and nonreduced, SDS-PAGE
# T2 construct: also called human folate receptor beta (purified, secreted form)
# T2 sequence (chain, as listed by the source limits assumed): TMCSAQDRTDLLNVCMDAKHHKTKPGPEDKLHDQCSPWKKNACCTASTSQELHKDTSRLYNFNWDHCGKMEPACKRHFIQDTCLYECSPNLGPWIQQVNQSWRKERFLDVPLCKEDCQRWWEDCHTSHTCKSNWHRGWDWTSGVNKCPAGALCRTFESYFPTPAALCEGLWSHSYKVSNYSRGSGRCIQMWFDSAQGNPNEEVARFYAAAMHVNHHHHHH
# Protocol: (§1) Experiments were conducted to determine whether any of the FRα-specific antibodies, described above, could recognize denatured forms of FRα. […] Lysates were pre-cleared by centrifugation at 13,000 rpm for 15 minutes to remove debris. For reduced and denatured samples, equal amounts of protein (20 μg) were boiled for 10 minutes in NUPAGE® LDS sample buffer (Invitrogen) containing 5% β-mercaptoethanol+40 mM DTT. […] The membrane was blocked in PBST+ 5% non-fat milk for lh at room temperature after which time, the membrane was washed twice with PBST. Immunoblotting was conducted using purified mouse monoclonal antibodies 9F3, 19D4, 24F12, or 26B3 (1 μg/mL) specific for FRα, which were detected with a goat-anti-mouse HRP-conjugated antibody and visualized using SUPERSIGNAL™ West Pico chemiluminescent substrate (Pierce, Rockford, Ill.). Luminescence was visualized using the Omega 12iC molecular imaging system (Ultra-Lum, Claremont, Calif.) with image analysis performed using ULTRAQUANT™ 6.0 software (Ultra-Lum).
# (§2) Western blot analyses were also performed using purified folate receptor preparations. For these experiments, 0.5 μg of purified human FRα, β, Γ or Δ, produced as described in Example 1, were incubated in 1× SDS-PAGE sample loading buffer (Invitrogen) with or without 20 mM DTT, boiled for 10 min, and electrophoresed on 4-12% gradient SDS-PAGE gels. Protein was transferred to PVDF membrane and blots probed as described above. Gels were run using Benchmark™ prestained protein ladder (NOVEX®). Gels using purified recombinant FR proteins were also visualized via silverstaining to ensure equal amounts of protein were loaded.
# [3] = molecular target: T3, purified recombinant human folate receptor alpha (rh-FRα) (human, UniProt P15328 25-234); test: SPR, BIACORE T100, antibody captured on anti-mouse IgG, rh-FRα 1-30 nM as analyte, single-cycle kinetics, 1:1 fit
# T3 construct: One is secreted from CHO cells, with a human Ig kappa leader and a C-terminal 6x His tag replacing the GPI attachment site; The other is from Sf9 cells, with an N-terminal 6x His tag and the GPI site intact; also called FR-alpha; FOLR1
# T3 sequence (P15328 25-234 limits assumed): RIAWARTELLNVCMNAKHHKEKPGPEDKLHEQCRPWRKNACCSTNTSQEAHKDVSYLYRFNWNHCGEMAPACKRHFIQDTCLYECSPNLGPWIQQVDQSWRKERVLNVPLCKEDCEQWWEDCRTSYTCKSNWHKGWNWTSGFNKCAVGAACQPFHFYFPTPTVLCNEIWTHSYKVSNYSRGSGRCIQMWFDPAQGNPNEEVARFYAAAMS
# Protocol: Binding characteristics of the purified monoclonal antibodies to FRα were determined by surface plasmon resonance (SPR) experiments. All of the SPR experiments were performed at 25° C. using a BIACORE™ T100 with research grade CM5 chips (GE Healthcare), as specified by the manufacturer. Initially, anti-mouse IgG provided in the mouse antibody capture kit (GE Healthcare) was immobilized by amide coupling to CM5 sensor chips. Mouse anti-FRα monoclonal antibodies (26B3, 24F12, 19D4, or 9F3) were captured on individual flow cells per binding cycle, while the fourth flow cell was used as a reference. Binding experiments were performed with HBS-P (GE Healthcare) as running buffer and at a flow rate of 30 μL/min. Each monoclonal antibody sample (0.5 μg/mL) was injected for 3 minutes to capture the antibody. Various concentrations of purified recombinant human FRα (rh-FRα) (1 nM-30 nM) were then injected over the FRα-specific and reference surfaces for 3 minutes to record binding sensograms using a single-cycle kinetics method. The dissociation profile was monitored for 25 minutes. In between bindings, the surface was regenerated with a 30 μl injection of 10 mM glycine (pH 1.7). The sensograms were processed and fitted to a 1:1 Langmuir binding model using BIACORE™ T100 evaluation software (version 2.0.1).
# [4] = molecular target: T4, human FRα expressed on CHO cells (GPI-linked) (human, UniProt P15328 25-234); test: flow cytometry on CHO cells expressing FRα, antibody 1 µg/mL, FITC secondary
# T4 construct: CHO/CHOK1 cells stably expressing GPI-linked human FRα; They were used intact in flow cytometry and as nonreduced whole cell lysates in the western blots; also called native FRα; CHO-FRα
# T4 sequence (P15328 25-234 limits assumed): as above
# Protocol: Flow cytometry studies were conducted to assess the ability of selected FRα-specific antibodies to bind to the native protein. For these studies Chinese hamster ovary (CHO) cells expressing FRα, were harvested, washed, and re-suspended in ice-cold growth media (RPMI supplemented with 10% FBS). Cells were incubated for 1 hour on ice with 9F3, 19D4, 24F12, or 26B3 (1 μg/mL), washed and then incubated with FITC-conjugated secondary antibodies [dilution 1:100] (Southern Biotech, Birmingham, Ala.). Prior to analysis, cells were labeled with 7-amino-actinomycin D (7-AAD) (BD Biosciences, Franklin Lakes, N.J.) for the exclusion of nonviable cells. CHO cells not expressing FRα were also subjected to the same experimental procedures, as a negative control. Cells were analyzed on an […]™ Flow Cytometer (GUAVA® Technologies, Hayward, Calif.). The data provided in Table 4 indicate that all four antibodies are capable of binding native FRα.
# [5] = molecular target: T5, purified recombinant human FRΓ; test: western blot of 0.5 µg purified protein per lane, reduced and nonreduced, SDS-PAGE
# T5 construct: also called human folate receptor gamma (purified)
# T5 sequence (chain, as listed by the source limits assumed): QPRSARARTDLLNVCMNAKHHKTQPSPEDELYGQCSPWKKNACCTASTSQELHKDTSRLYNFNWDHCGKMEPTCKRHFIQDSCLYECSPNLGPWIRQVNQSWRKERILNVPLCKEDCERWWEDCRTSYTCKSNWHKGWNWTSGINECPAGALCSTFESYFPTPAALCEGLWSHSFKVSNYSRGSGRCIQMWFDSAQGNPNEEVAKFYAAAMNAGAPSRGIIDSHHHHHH
# Protocol: as §1, §2
# T1 sequence (P14207 17-230): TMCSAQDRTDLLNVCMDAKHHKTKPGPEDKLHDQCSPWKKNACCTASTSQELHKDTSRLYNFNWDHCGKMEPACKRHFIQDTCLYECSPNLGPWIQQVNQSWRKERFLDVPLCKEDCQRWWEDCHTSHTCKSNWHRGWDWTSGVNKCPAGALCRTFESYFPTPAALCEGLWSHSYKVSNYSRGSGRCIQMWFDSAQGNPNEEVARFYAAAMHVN
binder,measurement,setting,value
"Monoclonal antibody 9F3.H9.H3.H3.B5.G2 (antibody, mouse IgG2a, V domains shown, also called ATCC PTA-11887) VH: ESGPGLVRPSQSLSLTCSVTGYSITSGYYWNWIRQFPGSRLEWMGYIKSDGSNNYNPSLKNRISITRDTSKNQFFLKLNSVTTEDTATYFCTREWKAMDYWGQGTSVTVSS VL: PAIMSASPGEKVTMTCRASSTVSYSYLHWYQQKSGASPQLWIYGTSNLASGVPARFSGSGSGTSYSLTISSVEAEDAATYYCQQYSGYPLTFGAGTKLELKR",binding result,[1],no binding (tested: 1 µg/mL)
same,binding result,[2],no binding (tested: 1 µg/mL)
same,Kd,[3],715 pM
same,koff,[3],0.00031 s⁻¹
same,kon,[3],434000 M⁻¹ s⁻¹
same,Geometric Mean,[4],760
"Monoclonal antibody 26B3.F2 (antibody, mouse IgG1, V domains shown, also called MAb 26B3; ATCC PTA-11885) VH: GPELVKPGASVKISCKASDYSFTGYFMNWVMQSHGKSLEWIGRIFPYNGDTFYNQKFKGRATLTVDKSSSTAHMELRSLASEDSAVYFCARGTHYFDYWGQGTTLTVSS VL: PASLSASVGETVTITCRTSENIFSYLAWYQQKQGISPQLLVYNAKTLAEGVPSRFSGSGSGTQFSLKINSLQPEDFGSYYCQHHYAFPWTFGGGSKLEIKR",binding result,[1],no binding (tested: 1 µg/mL)
same,binding result,[2],no binding (tested: 1 µg/mL)
same,binding result,[5],no binding (tested: 1 µg/mL)
same,Kd,[3],27.3 pM
same,koff,[3],1.43e-05 s⁻¹
same,kon,[3],524000 M⁻¹ s⁻¹
same,Geometric Mean,[4],854
"Monoclonal antibody 24F12.B1 (antibody, mouse IgG1, V domains shown, also called ATCC PTA-11886) VH: SGGGLVRPGGSLKLSCAASGFTFSSYAMSWVRQSPEKRLEWVAEIGSGGSYTYYPDTVTGRFTISRDNAKSTLYLEMSSLRSEDTAIYYCARETTAGYFDYWGQGTTLTVSS VL: TSSLSASLGDRVTISCSASQGINNFLNWYQQKPDGTVKLLIYYTSSLHSGVPSRFSGSGSGTDYSLTISNLEPEDIAIYYCQHFSKLPWTFGGGTKLEIKR",binding result,[1],no binding (tested: 1 µg/mL)
same,binding result,[2],no binding (tested: 1 µg/mL)
same,binding result,[5],no binding (tested: 1 µg/mL)
same,Kd,[3],102 pM
same,koff,[3],3.99e-05 s⁻¹
same,kon,[3],393000 M⁻¹ s⁻¹
same,Geometric Mean,[4],777
"Monoclonal antibody 19D4.B7 (antibody, mouse IgG2a, V domains shown, It was labelled with Ru (about 13 labels per IgG) when used as the detector in the ECL assays; also called ATCC PTA-11884) VH: GAELVKPGASVKLSCTASGFNIKHPYMHWVKQRPDQGLEWIGRIDPANGNTKYDPKFQGKATITADTSSNTAYLQLSSLTSEDTAVYYCGREEVADYTMDYWGQGTSVTVSS VL: PASLAVSLGQRATISCRASESVDTYGNNFIHWYQQKPGQPPKLLIYLASNLESGVPARFSGSGSRTDFTLTIDPVEADDAATYYCQQNNGDPWTFGGGTKLEIKR",binding result,[2],no binding (tested: 1 µg/mL)
same,binding result,[5],no binding (tested: 1 µg/mL)
same,Kd,[3],567 pM
same,koff,[3],0.000242 s⁻¹
same,kon,[3],427000 M⁻¹ s⁻¹
same,Geometric Mean,[4],1130
